{
  "source": "paper PMC8887654",
  "about": "(ACS infectious diseases, 2022)",
  "key": {"subgroup 2b PLpros": {"tested_on": "subgroup 2b PLpros", "assay": "PLpro inhibition IC50, text summary over all three PLpros", "type": "biochemical", "settings": "read-out: IC50 values; text summary for the most potent inhibitors"}, "RPTEC": {"tested_on": "RPTEC", "settings": "human"}, "BEAS-2B cells": {"tested_on": "BEAS-2B cells", "settings": "human"}, "BtSCoV-Rf1.2004 PLpro": {"tested_on": "BtSCoV-Rf1.2004 PLpro", "type": "biochemical"}, "SARS-2 PLpro": {"tested_on": "SARS-2 PLpro", "settings": "cited from earlier work"}, "SARS PLpro": {"tested_on": "SARS PLpro", "settings": "cited from earlier work"}, "MERS PLpro": {"tested_on": "MERS PLpro", "settings": "cited from earlier work"}, "MHV PLP2": {"tested_on": "MHV PLP2", "settings": "cited from earlier work"}},
  "note": "Several values for one entry are separate records, joined by “and”; a condition that tells them apart may be missing. Equal entries are not always repeated.",
  "data": [
    {"molecule": "Cc1ccc(N)cc1C(=O)N[C@H](C)c1cccc2ccccc12", "note": "[GRL0617, 5-Amino-2-methyl-N-[(R)-1-(1-naphthyl)ethyl]benzamide]", "values": [
      {"measurement": "IC50", "setting": "subgroup 2b PLpros", "value": "< 10", "unit": "µM"},
      {"measurement": "CC50 relative to IC50", "setting": "RPTEC", "value": "more than five times the IC50"},
      {"measurement": "CC50 relative to IC50", "setting": "BEAS-2B cells", "value": "more than five times the IC50"}
    ]},
    {"molecule": "Ubiquitin–7-amino-4-methylcourmarin [Ub-AMC]", "values": [
      {"measurement": "Kcat", "setting": "BtSCoV-Rf1.2004 PLpro", "value": "0.232 ± 0.0067", "unit": "s⁻¹"},
      {"measurement": "Km", "setting": "BtSCoV-Rf1.2004 PLpro", "value": "14.3 ± 0.9", "unit": "µM"},
      {"measurement": "Kcat", "setting": "SARS-2 PLpro", "value": "0.167 ± 0.013", "unit": "s⁻¹"},
      {"measurement": "Km", "setting": "SARS-2 PLpro", "value": "7.9 ± 1.4", "unit": "µM"},
      {"measurement": "Kcat", "setting": "SARS PLpro", "value": "1.26 ± 0.135", "unit": "s⁻¹"},
      {"measurement": "Km", "setting": "SARS PLpro", "value": "50.6 ± 7.4", "unit": "µM"},
      {"measurement": "Kcat", "setting": "MERS PLpro", "value": "0.313 ± 0.02", "unit": "s⁻¹"},
      {"measurement": "Km", "setting": "MERS PLpro", "value": "14.3 ± 2", "unit": "µM"},
      {"measurement": "Kcat", "setting": "MHV PLP2", "value": "0.83 ± 0.0483", "unit": "s⁻¹"},
      {"measurement": "Km", "setting": "MHV PLP2", "value": "1.3 ± 0.2", "unit": "µM"}
    ]},
    {"molecule": "human ISG15-7-amino-4-methylcourmarin [ISG15-AMC]", "values": [
      {"measurement": "observed rate (no maximum turnover calculable)", "setting": "BtSCoV-Rf1.2004 PLpro", "value": 595, "unit": "min⁻¹"},
      {"measurement": "Kcat", "setting": "SARS-2 PLpro", "value": "0.667 ± 0.03", "unit": "s⁻¹"},
      {"measurement": "Km", "setting": "SARS-2 PLpro", "value": "3.9 ± 0.5", "unit": "µM"},
      {"measurement": "Kcat", "setting": "SARS PLpro", "value": "7.27 s⁻¹ and 7.27 ± 0.667 s⁻¹"},
      {"measurement": "Km", "setting": "SARS PLpro", "value": "15.1 ± 2.4", "unit": "µM"},
      {"measurement": "Kcat", "setting": "MERS PLpro", "value": "0.543 ± 0.03", "unit": "s⁻¹"},
      {"measurement": "Km", "setting": "MERS PLpro", "value": "3.3 ± 0.5", "unit": "µM"}
    ]}
  ]
}
